Measured values from the nanobody polyreactivity screen of Harvey et al. (2022).

Assay: yeast display, Sf9 membrane polyspecificity reagent, FACS + sequencing; frameworks hold sequencing errors
How it was run: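 Nanobodies from a synthetic yeast display library (Saccharomyces cerevisiae BJ5465), induced 36–48 hours with galactose, were stained 1 hour at 4 °C with 10% biotinylated, detergent-solubilized Sf9 membrane reagent, enriched on streptavidin microbeads, then FACS-sorted. Anti-HA (expression) and streptavidin (reagent binding) fluorescence set low and high (top ~1%) gates. Polyreactivity labels come from the gate of origin. Genes were colony-PCR amplified, MiSeq 2 × 250 sequenced and filtered by CDR length.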

## QVQLVESGGGLVQAGGSLRLSCAASGSIFSYYVMGWYRQAPGTERELVAAISYSGGRTYYADSVKGRFTISRDNAKNTVYLQMNSLKPEDTAVYYCAASRRVGEVSYYYWGQGTQVTVSS
  polyreactivity (PSR sort gate): high polyreactivity

## QVQLVESGGGLVQAGGSLRLSCAASGSIFTANAMGWYRQAPGKERELVAAISRSGGNTYYADSVKGRFTISRDNAKNTVYLQMNSLKPEDTAVYYCAARQKGTGNYWGQGTQVTVSS
  polyreactivity (PSR sort gate): high polyreactivity

## QVQLVESGGGLVQAGGSLRLSCAASGSIFTAYAMGWYRQAPGKERELVAAITTSGDSTYYADSVKGRFTISRDNAKNTVYLQMNSLKPEDTAVYYCAAEYYSYRITTYDYWGQGTQVTVSS
  polyreactivity (PSR sort gate): high polyreactivity

## QVQLVESGGGLVQAGGSLRLSCAASGSIFTDNVMGWYSQAPGKERELVAAITYSAASTYYADSVKGRFTISRDNAKNTVYLQMNSLKPEDTAVYYCNARIIYRKWLFRSGTFNYWGQGTQVTVSS
  polyreactivity (PSR sort gate): low polyreactivity

## QVQLVESGGGLVQAGGSLRLSCAASGSIFTDYAMGWYRQAPGKERELVATITWSDASTYYTDSVKGRFTISRDNAKNTVYLQMNSLIPEDTAVYYCARRSRYSKGYDYWGQGTQVTVSS
  polyreactivity (PSR sort gate): low polyreactivity

## QVQLVESGGGLVQAGGSLRLSCAASGSIFTEDAMGWYRQAPGKERELVAAISWSGATTYYADSVKGRFTISRDKAKNPVDLQMNSLKPEDTAVYYCAARWANRSYEYWGQGTQVTVSS
  polyreactivity (PSR sort gate): low polyreactivity

## QVQLVESGGGLVQAGGSLRLSCAASGSIFTFNAMGWYRQAPGKERELDAGISWRTSSTSYADSVKGRFTNSRDNAKNTVYLQMNSLKPEDTAVYYCATEDSWGYEEVDYWGQGTQVTVSS
  polyreactivity (PSR sort gate): low polyreactivity

## QVQLVESGGGLVQAGGSLRLSCAASGSIFTFNTMGWYRQAPGKERELVATISSGGRTYYADSVKGRFTISRDNAKNTVYLQMNSLKPEDTAVYYCNKGYYGYTYVEYNYWGQGTQVTVSS
  polyreactivity (PSR sort gate): low polyreactivity

## QVQLVESGGGLVQAGGSLRLSCAASGSIFTFYAMGWYRQAPGKERELVAAISKGGDRTYYADSVKGRFTISRDNAKNTVYLQMNSLIPEDTAVYYCARLVRPGRFGDGDYWGQGTQVTVSS
  polyreactivity (PSR sort gate): low polyreactivity

## QVQLVESGGGLVQAGGSLRLSCAASGSIFTFYAMGWYRQAPGKERELVATINRIGGNTYYADSVKGRFTISRDNAKNTVYLQMNSLKPEDTAVYYCAAKPTYRGYGYGSWGQGTQVTVSS
  polyreactivity (PSR sort gate): low polyreactivity

## QVQLVESGGGLVQAGGSLRLSCAASGSIFTFYAMRWYRQAPGKERELVATINRIGGNRYYADSVKGRFTISRDNAKNTVYLQMNSLKPEDTAGYYCAAKPTYRGYGYGSWGQGTQVNVSS
  polyreactivity (PSR sort gate): low polyreactivity

## QVQLVESGGGLVQAGGSLRLSCAASGSIFTGNAMGWYRQAPGKERELVASITTSTDSTYYADSVKGRFTISRDNAKNTVYLQMNSLNPEDTAVYYCAAEYAVAWKYGLYFYFHFDYWGQGTQVTVSS
  polyreactivity (PSR sort gate): low polyreactivity

## QVQLVESGGGLVQAGGSLRLSCAASGSIFTGNTMGWYRQAPGKDRELVATISRRGGSTYYADSVKGRFTITRDNAKYSVYLQMNSLKPEDTAVYYCAARGPYRPPHGDAYYTYGYWGQGTQVTVSS
  polyreactivity (PSR sort gate): high polyreactivity

## QVQLVESGGGLVQAGGSLRLSCAASGSIFTGNTMGWYRQAPGKERELVAAISRRGGRTYYADSVKGRFTISRDNAKNTVYLQMNSLKPEDTAVYYCAALGRDSTPHGYWGQGTQVTVSS
  polyreactivity (PSR sort gate): high polyreactivity

## QVQLVESGGGLVQAGGSLRLSCAASGSIFTGYAMGWYRQAPGKERELVAAIRTRGGSTYYADSVKGRFTISRDNAKNTVYLQMNSLKPEDTAVYYCAKRYYGWYGNFDYWGQGTQVTVSS
  polyreactivity (PSR sort gate): high polyreactivity

## QVQLVESGGGLVQAGGSLRLSCAASGSIFTGYAMGWYRQAPGKERELVAGISWGGTSTYYADSVKGRFTISRDNAKYTVYLQMNSLKPEDTAVYYCSAVRGKYGYLTTPDWFDYWGQGTQVTVSS
  polyreactivity (PSR sort gate): high polyreactivity

## QVQLVESGGGLVQAGGSLRLSCAASGSIFTGYSMGWYRQAPGKERELVAAISNSGTSTYYADSVKGRFTISRDNAKNTVYLQMNCLKPDDTAVYYCNRYHRLRVVPSRYVKYDYWGQGTQVTVSS
  polyreactivity (PSR sort gate): low polyreactivity

## QVQLVESGGGLVQAGGSLRLSCAASGSIFTHNAMGWYRQAPGKVREFVAAISSGGSTNYADSVKGRFTISRDNAKNTVYSQMNSLKPEDTAVYYCAKSIDGWYWRRRRYDYWGQGTQVTVSS
  polyreactivity (PSR sort gate): low polyreactivity

## QVQLVESGGGLVQAGGSLRLSCAASGSIFTKNSMGWYRQAPGKERELVAAISSGGSTYYADSVKGRFTISRDNAKNTVYLQMNSLKPEDTAVYYCARGASFFQKFYYWGQGTQVTVSS
  polyreactivity (PSR sort gate): high polyreactivity

## QVQLVESGGGLVQAGGSLRLSCAASGSIFTLNAMGWYRQAPGKERELVAAIRWSGGSTYYADSVKGRFTISRDNAKNTVYLQMNSLKPEDTAVYYCAAKYPSDYYSRGFNYWGQGTQVTVSS
  polyreactivity (PSR sort gate): high polyreactivity

## QVQLVESGGGLVQAGGSLRLSCAASGSIFTLNAMGWYRQAPGKERELVAAISRSGGSTYYADSVKGRFTISRDNAKNTVYLQLNSLKPEDTAVYYCAVYVTRDSGWWLYDYWGQGTQVTVSS
  polyreactivity (PSR sort gate): high polyreactivity

## QVQLVESGGGLVQAGGSLRLSCAASGSIFTLYTMGWYRQAPGKERELVAGISWRGGRTYYADSVKGRFTISRDNAKNTVYLQMNSLKPEDTAVYYCAAKWTPHIYTLYSWGQGTQVTVSS
  polyreactivity (PSR sort gate): high polyreactivity

## QVQLVESGGGLVQAGGSLRLSCAASGSIFTNAMGWYRQAPGKERELVASIDANAGDTHYADSVKGRFTISRDNAKKTVYLQMNSLKPEDTAVYYCNADVTERLWTGEDDYWGQGTQVTVSS
  polyreactivity (PSR sort gate): low polyreactivity

## QVQLVESGGGLVQAGGSLRLSCAASGSIFTNNAMGRYRQAPGKERELVAGISFRGSSTYADSVKGRFTISRDNAKNTVYLQMNSLKPEDTAVYYCAAEWFDLEDDYWGQGTQVTVSS
  polyreactivity (PSR sort gate): low polyreactivity

## QVQLVESGGGLVQAGGSLRLSCAASGSIFTNNAMGWYRQAPGKETELVAAISWSGGSTYYADSVKGRFTISRDNAKNTVYLQMNSLKPEDTAVYYCAARRWGGPRYKYNYWGQGTQVTVSS
  polyreactivity (PSR sort gate): high polyreactivity

## QVQLVESGGGLVQAGGSLRLSCAASGSIFTPNAMGWYRQAPGKERELVAAISSSSDRTYYADSVKGRFTISRDNAKNTVYLQMNSLKPEDTAVYYCAAYAQKRYYWGQVTQVTVSS
  polyreactivity (PSR sort gate): high polyreactivity

## QVQLVESGGGLVQAGGSLRLSCAASGSIFTPNGRGWYRPAPGKDSELVAAISQSGGSTFYADSVKGRFTMSRDNAKYTVYLQMNSLKPEDSAVYYCATEYYGPVYDLDYDYWGQGSQVTVSS
  polyreactivity (PSR sort gate): low polyreactivity

## QVQLVESGGGLVQAGGSLRLSCAASGSIFTPNVMGWYRQAPGKERELVAAISQSGGSTFYADSVKGRFTISRDNAKNNVYLQMNSLKPEDTAVYYCAADPFYYFPSPFDYWGQGTQVTVSS
  polyreactivity (PSR sort gate): low polyreactivity

## QVQLVESGGGLVQAGGSLRLSCAASGSIFTPYAMGWYRQAPGKERELVAAISDSVGSTYYADSVKGRFTISRDNAKNTVYLQMNSLKPEDTAVYYCAAEYWVYDSYWFDYDYWGQGTQVTVSS
  polyreactivity (PSR sort gate): high polyreactivity

## QVQLVESGGGLVQAGGSLRLSCAASGSIFTPYAMGWYRQAPGKERELVAAITSGGSTYADSVKGRFTISRDNAKNTVYLQMNSLKPEDTAVYYCAADRSYVYAGADMYYWGQGTQVTVSS
  polyreactivity (PSR sort gate): low polyreactivity

## QVQLVESGGGLVQAGGSLRLSCAASGSIFTPYAMVWYRQAPGKERELVATISWRGGSTYADSVKGRFTISRDNAKNTVYLQMNSLKPEDTAVYYCNKEYTFSLYDYWGQGSQVTVSS
  polyreactivity (PSR sort gate): low polyreactivity

## QVQLVESGGGLVQAGGSLRLSCAASGSIFTRNALGWYRQAPGKETEFVAAISSSGVSTYYADSVKGRFTISRDNAKNTVYLQMNSLKPEDTAVYDCAARWGTKSGRFEYWGQGTQVTVSW
  polyreactivity (PSR sort gate): high polyreactivity

## QVQLVESGGGLVQAGGSLRLSCAASGSIFTRNAMGWYITAPGKEREFVAAISSSGVSTYYADSVKGRLTISRDNAKNTVYLQMNSLKPEDTAVYYCAARWGTKSGRYDYWGQGTQVTVSS
  polyreactivity (PSR sort gate): high polyreactivity

## QVQLVESGGGLVQAGGSLRLSCAASGSIFTRNAMGWYRQAPGKERELVAAISWRGGITNYADSVKGRFTISRDNAKNTVYLQMNSLKPEDTAVYYCNKIRTRGGYGYWGQGTQVTVSS
  polyreactivity (PSR sort gate): high polyreactivity

## QVQLVESGGGLVQAGGSLRLSCAASGSIFTRNTMGWYRQAPGKERELVAAISTSGGDTYYADSVKGRFTISRDNAKNTVYLQMNSLKPEDTAVYFCAVVLVGVYFGYDYWGQGTQVTVSS
  polyreactivity (PSR sort gate): high polyreactivity

## QVQLVESGGGLVQAGGSLRLSCAASGSIFTRYAMGWYRQAPGKERELVADIRTRGGGTYYADSVKGRFTISRDTAKNTVYLQMNSLKPEDTAVYYCAKLWYHVYGSSPYGYWGQGTQVTVSS
  polyreactivity (PSR sort gate): high polyreactivity

## QVQLVESGGGLVQAGGSLRLSCAASGSIFTRYAMGWYRQEPGKERELVAAITTRGSSTYYADSVKGRFTISRDYAKNTVYLQMNSLKPEDTAVYYCATVVRLYRGRYRYDYWGQGTQVTVSS
  polyreactivity (PSR sort gate): high polyreactivity

## QVQLVESGGGLVQAGGSLRLSCAASGSIFTSYAMGWYRHAPGKERELVAAITSTGGSTYYADSVKGRFTISRDNAKNTVYLQMNSLKPEDTAVYYCNADGGTPYDYWGQGTQVTVSS
  polyreactivity (PSR sort gate): low polyreactivity

## QVQLVESGGGLVQAGGSLRLSCAASGSIFTSYAMGWYRQAPGKERELVAGISWSVGGITYYADSVKGRFTISRDNAKNTVYLQMNSLKPEDTAVYYCAADPEGGLGTIPEDYWGQGTQVTVSS
  polyreactivity (PSR sort gate): low polyreactivity

## QVQLVESGGGLVQAGGSLRLSCAASGSIFTTYAMGWYRQAPGKERELVAAISSTSGSTYYADSVKGRFTISGDNAKNTVYLQMTSLKPEDTAVYYCAARGGYWGQGTQVTVSS
  polyreactivity (PSR sort gate): low polyreactivity

## QVQLVESGGGLVQAGGSLRLSCAASGSIFTVYAMGWYRPAPGTERELVARISSGAGTTYADSVKGRFTISRDNAKNTVYVQMKSLTPEDTAVYYCAAYTWDTDHYWYGYVPYDYWGQGTQVSVSS
  polyreactivity (PSR sort gate): low polyreactivity

## QVQLVESGGGLVQAGGSLRLSCAASGSIFTVYAMGWYRQAPGKERELVAAISRRGGSTYYADSVKGRFTISRDNAKNTVYLQMNSLKPEDTAVYYCAALERTLDNKYQFGYWGQGTEVTVSS
  polyreactivity (PSR sort gate): high polyreactivity

## QVQLVESGGGLVQAGGSLRLSCAASGSIFTVYAMGWYRQAPGKERELVAVINYRGGNTYYADSVKGRFTISRDNAKNTVYLQMNSLKPEDTAVYYCATEVSWHWYQLSVPRMDYWGQGTQVTVSS
  polyreactivity (PSR sort gate): low polyreactivity
